B1: Claudin-2 (Homo sapiens), P57739 (parent)
chain: MASLGLQLVGYILGLLGLLGTLVAMLLPSWKTSSYVGASIVTAVGFSKGLWMECATHSTGITQCDIYSTLLGLPADIQAAQAMMVTSSAISSLACIISVVGMRCTVFCQESRAKDRVAVAGGVFFILGGLLGFIPVAWNLHGILRDFYSPLVPDSMKFEIGEALYLGIISSLFSLIAGIILCFSCSSQRNRSNYYDAYQAQPLATRSSPRPGQPPKVKSEFNSYSLTGYV

Variants of: B1
Conditions: with ap2m1_human AP2M1, Q96CW1
ap2m1_human AP2M1, Q96CW1, sequence (Q96CW1 whole entry): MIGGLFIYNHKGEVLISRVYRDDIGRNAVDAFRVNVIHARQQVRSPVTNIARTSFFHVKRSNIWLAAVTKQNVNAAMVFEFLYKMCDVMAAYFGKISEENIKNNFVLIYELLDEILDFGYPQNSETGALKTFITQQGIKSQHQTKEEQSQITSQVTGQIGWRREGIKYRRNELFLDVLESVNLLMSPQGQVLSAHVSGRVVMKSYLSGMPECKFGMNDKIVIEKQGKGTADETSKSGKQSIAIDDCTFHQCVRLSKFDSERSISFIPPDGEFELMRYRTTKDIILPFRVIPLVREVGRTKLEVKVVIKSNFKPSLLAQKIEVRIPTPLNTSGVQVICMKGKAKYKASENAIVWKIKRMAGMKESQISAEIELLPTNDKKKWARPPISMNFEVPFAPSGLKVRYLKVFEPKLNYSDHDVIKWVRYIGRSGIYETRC

| Variant | effect of a mutation on the interaction |
| --- | --- |
| Y67A;L70A;Y148A;L151A | disrupting interaction strength |
| Y148A;L151A | decreasing interaction strength |
| Y67A;L70A | disrupting interaction strength |

Variants of: B1
Conditions: with ap2m1_human AP2M1, Q96CW1
Remark: another data set of the same source

| Variant | effect of a mutation on the interaction |
| --- | --- |
| Y67A;L70A;Y148A;L151A | disrupting interaction |

Reference: IntAct's records for PubMed 34964704
